Laboratory results as given in US20240417459A1 (published 2024).

Target: human ILT4-HIS
Experiment: BLI (Octet)

Binder | Kd [nM]
9H9-7A3 LH (bispecific antibody) heavy: not shown light: DIQMTQSPSTLSASVGDRVTITCRASQSISGWLAWYQQKPGKAPKLLIYKASSLESGVPSRFSGSGSGTEFTLTISSLQPDDFATYYCQQYYGSSRTFGQGTNVEIKRTVAAPSVFIFPPSDEQLKSGTASVVCLLNNFYPREAKVQWKVDNALQSGNSQESVTEQDSKDSTYSLSSTLTLSKADYEKHKVYACEVTHQGLSSPVTKSFNRGEC | 0.282
9H9-7A3 HL (bispecific antibody) heavy: not shown light: DIQMTQSPSTLSASVGDRVTITCRASQSISGWLAWYQQKPGKAPKLLIYKASSLESGVPSRFSGSGSGTEFTLTISSLQPDDFATYYCQQYYGSSRTFGQGTNVEIKRTVAAPSVFIFPPSDEQLKSGTASVVCLLNNFYPREAKVQWKVDNALQSGNSQESVTEQDSKDSTYSLSSTLTLSKADYEKHKVYACEVTHQGLSSPVTKSFNRGEC | 0.308
9H9-7B1 LH (bispecific antibody) heavy: not shown light: DIQMTQSPSTLSASVGDRVTITCRASQSISGWLAWYQQKPGKAPKLLIYKASSLESGVPSRFSGSGSGTEFTLTISSLQPDDFATYYCQQYYGSSRTFGQGTNVEIKRTVAAPSVFIFPPSDEQLKSGTASVVCLLNNFYPREAKVQWKVDNALQSGNSQESVTEQDSKDSTYSLSSTLTLSKADYEKHKVYACEVTHQGLSSPVTKSFNRGEC | 0.056
9H9-7B1 HL (bispecific antibody) heavy: not shown light: DIQMTQSPSTLSASVGDRVTITCRASQSISGWLAWYQQKPGKAPKLLIYKASSLESGVPSRFSGSGSGTEFTLTISSLQPDDFATYYCQQYYGSSRTFGQGTNVEIKRTVAAPSVFIFPPSDEQLKSGTASVVCLLNNFYPREAKVQWKVDNALQSGNSQESVTEQDSKDSTYSLSSTLTLSKADYEKHKVYACEVTHQGLSSPVTKSFNRGEC | 0.139
